Data taken from doi:10.64898/2025.12.08.692793 (bioRxiv, 2025).

Biological target: metabotropic glutamate receptor 2 (mGlu2) (human, UniProt Q14416 19-872)
Experiment: cryo-EM structure

Chain of metabotropic glutamate receptor 2 (mGlu2) (Q14416 19-872): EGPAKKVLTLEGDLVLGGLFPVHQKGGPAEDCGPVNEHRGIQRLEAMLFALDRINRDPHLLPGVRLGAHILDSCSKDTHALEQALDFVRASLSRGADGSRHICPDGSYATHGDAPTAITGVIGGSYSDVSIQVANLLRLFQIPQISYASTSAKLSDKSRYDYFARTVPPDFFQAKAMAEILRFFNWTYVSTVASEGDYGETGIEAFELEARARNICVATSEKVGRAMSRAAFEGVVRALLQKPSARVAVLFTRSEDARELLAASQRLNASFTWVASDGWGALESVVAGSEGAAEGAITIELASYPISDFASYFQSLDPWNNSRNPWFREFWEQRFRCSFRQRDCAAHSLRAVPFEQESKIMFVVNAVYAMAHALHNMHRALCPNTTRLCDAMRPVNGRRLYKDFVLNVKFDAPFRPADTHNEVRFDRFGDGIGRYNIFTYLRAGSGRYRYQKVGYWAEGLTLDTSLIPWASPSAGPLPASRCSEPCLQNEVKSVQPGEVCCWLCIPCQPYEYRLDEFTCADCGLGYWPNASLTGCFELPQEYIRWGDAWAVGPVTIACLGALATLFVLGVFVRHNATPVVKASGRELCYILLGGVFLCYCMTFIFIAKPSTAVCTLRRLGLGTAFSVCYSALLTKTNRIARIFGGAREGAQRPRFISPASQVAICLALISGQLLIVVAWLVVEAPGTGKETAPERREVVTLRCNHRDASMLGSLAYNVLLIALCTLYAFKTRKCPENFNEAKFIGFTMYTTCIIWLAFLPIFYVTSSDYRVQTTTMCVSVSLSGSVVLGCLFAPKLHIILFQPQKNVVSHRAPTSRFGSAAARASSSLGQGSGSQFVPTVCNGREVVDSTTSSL

binding result: binds
B1: FTM peptide (Force Transduction Motif, mGlu2 residues 556-563) (peptide)
peptide: LPQEYIRW
